What all share (assay): receptor inhibition assay at 10 µM Compound A, ratio relative to a control compound
One experiment has as its target Neuropeptide Y1 receptor. As for the experimental part: (§1) The inhibitory action of Compound A against various receptors listed in Table 2 was examined to evaluate the specificity of Compound A. The activities of the receptors were measured by using an appropriate assay system according to the property of the respective receptors. Further, the evaluation results of Compound A were calculated as an inhibition ratio at a final concentration of 10 μM. Here, the inhibition ratio was calculated based on a value of a control compound in each assay. As is apparent from the results shown in Table 2, it was confirmed that Compound A is specific to an MCH receptor. Incidentally, examination was carried out with regard to 173 kinds of physiologically functional proteins including the receptors shown in Table 2, however, the affinity thereof could not be found other than the MCH receptors, and only major receptors are shown in Table 2.

The next experiment addresses Muscarine M1 receptor. How it is done:
as §1

A further experiment addresses Glutamate AMPA receptor. As for the experimental part:
as §1

The next experiment deals with Histamine H3 receptor. As for the experimental part: as §1

B1: Compound A (peptide)
peptide: RCMXRVYXC
modifications: N-terminal acetyl on Arg 1 (printed Arg-C(=O)CH3); C-terminal amide on Cys 9 (printed H2N-Cys); X at positions 4 and 8 = Ava (5-aminovaleric acid); the two Cys residues (2 and 9) are bound to each other through a -SS- bond
notes: Synthetic cyclic peptide with two non-natural Ava residues; The direction of the printed formula is interpreted; also called MCH1R antagonist; H2N-Cys-Ava-Tyr-Val-Arg-Ava-Met-Cys-Arg-C(=O)CH3
On to B1, for which the Inhibition ratio with Neuropeptide Y1 receptor was 17; in the experiment with Muscarine M1 receptor, 0; with Glutamate AMPA receptor, 8; in the experiment with Histamine H3 receptor, -6.

Source of the values: US20100184648A1 (published 2010).
